The values below come from the DeepSol protein solubility set.

This data set in a line: soluble on expression in E. coli; label from the status in PepcDB or PDB records.
On to “SLDGAHKMARVWVGILNWSLKHIVGLKYRIIGAENIPDRPAVICAKHQSGWETLALQDIFPPQVYVAKRELFKIPFFGWGLKLVKTIGIDRNNRREANEQLIKQGLVRKNEGYWITIFPEGTRLAPGKRGKYKLGGARMAKMFEMDIVPVALNSGEFWPKNSFLKYPGEITVVICPTIPHASGSEAELMEKCEHLIETQQPLISGAGPFAAKMPSETAEG”, for which the “soluble on expression in E. coli” value is listed as “soluble”.
The value for “GSRLNPVQLELLNKLHLETKLNAEYTFMLAEQSNWNYEVAIKGFQSSMNGIPREAFVQF” was “soluble”; that for “MSLTESFSTPKFHISPTGMIMEGAQLHIKCTIQVTHLAQEFPEIIIQKDKAIVAHNRHGNKAVYSVMAMVEHSGNYTCKVESSRISKVSSIVVNITELFSKPELESSFTHLDQGERLNLSCSIPGAPPANFTIQKEDTIVSQTQDFTKIASKSDSGTYICTAGIDKVVKKSNTVQIVVCEMLSQPRISYDAQFEVIKGQTIEVRCESISGTLPISYQLLKTSKVLENSTKNSNDPAVFKDNPTEDVEYQCVADNCHSHAKMLSEVLRVKVIAPVDEVQISILSSKVVESGEDIVLQCAVNEGSGPITYKFYREKEGKPFYQMTSNATQAFWTKQKASKEQEGEYYCTAFNRANHASSVPRSKILTVRVIEGHHHHHH” was “not soluble”; that for “MTKMLKLFDAHFHIIDYRFPLITNQSYLPPEFTVEDYLQRAKPLNICGGAVVSGSFQAFDQSYLLAALSILGSDFVGVTQLPATVSDEEIIQLNQKGIRAVRFNVKRGGSENIHRLKYFAHRIYEMVRWHVEIYVDSKDLGDLTSLLLELPAVSIDHLGLSHSGFSQLLHLVEHGIKIKASGFGRVDFDVKKALQTIAQINPDALLFGTDLPSTRAPRPFLDSDIQIIQDLFDEKLTEKILYRNARNFYSKNSSELEHHHHHH” was “not soluble”.
Turning to “MIISTDLQLLISPMQWDQVASEIAQQLSAVGYNVTDIRAEVIDLTCEPDNMLVNQWQQEHGTIPTSEQLHRVVITGEFDGELRKATECVVRQLPEGSYWYGTSLVGEIEPSVTAACAWQADV”, the “soluble on expression in E. coli” value is “not soluble”.
As for “MGYCVLHLEKAKGADSGMSAHIERTIVPKNIDPTRTHLNRELIMFPDGVCNRTLAIRHRLDTAGLKRKIGKNQVQAIRIVLSGTHEDMARMEDEGRLGEWCDDSVAWLRETYGAENLVSAVLHMDEETPHIHATVVPIVQGERRKQKKEENARRRYRTKAPAPRLCADEVMSRASLIRYQDTYAEHMEKYGLKRGVRGSLAKHLSTHEYYRSLITQGEDIQANIATLLSRETEASRIIAEAEQAKQELARIKAETKTVELKNSAARTATAALNGIGSLLGSNKMSRLESENRQLHGEVAELKESIEQMRTDMQKMRDSYTAEQLRVSEQHQREIGNFRRIIDKAKEWFPILAEFLRIERICRSVGLSERHTDELLQGKVLVVTGKLFSDEYKRSFTVEKVRLKVGREERDGKTVLDLLVDRVPIAAWFKEKWEKVSINRFRRNEMTIQKERGVRLLEHHHHHH”, the “soluble on expression in E. coli” value is “not soluble”.
On to “MAHHHHHHMRAEIPGVVPAVVSQVSEHQLPHLYPRHTAVTDSTALPREKSTLQRTDTTDSQLFSLADLQLARGNTRRPSRSRPTSPIRKDRIPRPPSVEFDVHLEVPRPHIRVSALPKHVMWPLPIPLPNLGNTCYMNSVVQCLRQSPSLALALEQCQLNAESHPAAAAMLNFFRMSEGDPKEFLVTFKSEAAKYNDEFKDFTQADAHEFLRTFLSVVHNEINTAPRAKLHIDDMGYVGKEDEETAFGMWRDQFACFDKSPIYDLFGGTTLGTCFCNSCENSSRTFEAFLDLSLPIGHEMPFGANLEAILQANFVEGKAEKMDGSNRIYCSRCKRLRSGSRCVVVRQWPKLLVLHLKRFDEYGKKNLVNVIYPETFMTGGEKSLRYSLYGVLMHSGTEMSGHYTSYVRVAFGEWYLCNDGAITPSRSVDVMQELEKAYILFYAEVPQVEPTFF”, for which the “soluble on expression in E. coli” value is recorded as “not soluble”.
Take “HQYFFAKLQEQQNRYAKYGETAYNLEPNIKNGPGGLRDLQILLSISKRHFKIKKLAEGIGYGFITDKEYEELKYCQNFLWRVRFALHMLAGKPEERLSFDYQVKLAQFFGYQDQSHILAIEQFMKDYFKVIKRNRELNEMLLQWFNETIVYHQKQKIIRLDDEFQLSNRFIEVRNNRVFKQNPQSILKLFYWLVKRPDIEGVRASTIRLI”: the “soluble on expression in E. coli” value is on record as “not soluble”.
As to “AIAPRNNKTSLIQKIASQAYATFTNCSSSAIEDNNKVFLEHQADLVALLSDIRAADLKIAPPTKVSTSSPSVPPVTYMHICETDVFSMGVFLLKSGASIPLHDHPGMHGMLKVLYGKVSIRCYDKLDKAESDTERHFDPPLLAFQGDDVRRAALRSSGQFSELSGPCVLSPFKDNLHEIDAVDGAAAFLDILAPPYDPDDGRDCHYYRVLQTAGKKSEQSGDDEAWLLEIPQPDDFWCGGEPYPGPEVTI”, the “soluble on expression in E. coli” value is “soluble”.
The value for “MSLKIHGLIDAPFTPFYENGEVNYEPIEAYCQLLVRNGLQGVFINGSSGEGYMLTEDERMKLAERWMEVAPEGFKVIVHVGSTCVKSSKRLAEHAQKIGAWGIGAMAPPFPKVGRIEELVKYCEEIACGAPALPFYFYHIPAFNGAFLSMVAFLEAVDGRIPNFAGIKYTFESLYEYNQCRLYKNGKFDMLHGQDETILPCLAMGGAQGGIGGTTNYNGKELTGIIEAWKAGDLELARERQNFAQEVINVICHYRGNIVGGKRIMKLIGLDLGKNRTPFQNMTDEEEAAMKAELEAINFFEREGHHHHHH” was “soluble”; that for “MSLEWQDLAQLPVSIFKDYVTDAQDAEKPFIWTEVFLREINRSNQEIILHIWPMTKTVILGMLDRELPHLELAKKEIISRGYEPVVRNFGGLAVVADEGILNFSLVIPDVFERKLSISDGYLIMVDFIRSIFSDFYQPIEHFEVETSYCPGKFDLSINGKKFAGLAQRRIKNGIAVSIYLSVCGDQKGRSQMISDFYKIGLGDTGSPIAYPNVDPEIMANLSDLLDCPMTVEDVIDRMLISLKQVGFNDRLLMIRPDLVAEFDRFQAKSMANKGMVSRDEEGHHHHHH” was “soluble”; that for “MTSIEWDEKTFTKFAYLSDPRTRKNLVAYVLTKANLESNKYENTIVIENLEDGSRKFIEDASMPRISPDGKKIAFMRFNEEKKTAQIWVADLKTLSAKKVLEAKNIRSIEWNQDSRRLLAVGFKRREDEDFIFEDDVPAWFDNMGFFDGEKTTFWVIDTEGEEVIEQFEKPRFSSGIWHGDSIVVSVPHRDVIPRYFKYWDIYLWKDGEEEKLFEKVSFYAIDSDGERILLYGKPEKKYVSEHDKIYIYDGEVKGILDDIDREVAQAKIRNGKVYFTLFEEGSVNLYLWDGEVREIAKGKHWIMGFDADERLIYLKETATRPAELYLWDGEERQLTDYNGLIFKKLKTFEPRHFRFKSIDLELDGWYIKPEIKEGEKAPVIVFVHGGPKGMYGYYFKYEMQLMASKGYYIVYVNPRGSNGYSEDFALRVLERTGLEDFQDILNGIEEFLRLEPQADRERIGITGISYGGYMTNWALTQSDLFKAGISENGISYWLTSYAFSDIGLWFDKEVIGDNPLENENYRKLSPLFYAKNVKAPLLLIHSLEDYRCPLDQSLMFYHVLKDLGKEVYIAIFKKGAHGHSIRGSPRHRMKRYKLFMEFFERKLKKYEEGFDVEKILKEEKK” was “soluble”.
The value for “IALGGGAAKGFAHIGVLKMLEANGLAPSVVAGTSAGSVVGALYASGMDSFKIQTKAVAMDESNIRDLRFFSGGLVQGQKLQNYVNELVGKRPIEKLNMPFGAIATRLEDGQRTMFVRGNVGEAVRASCSIPGVFEPVTIGAYHYVDGGITSPVPV” was “not soluble”.
The value for “MQDLICYKKMPQWNSQTLPAAFQEKHNTQEGTWAKLTVLKGEMTFSMLTEDGDTLETFHFSEQNQPPFVEPQAWHRIVSFSDDLECQLSFFCSAEDFYHKKYGLTQTHSEVINAVQHIKPGKTLDLGCGGGRNSLYLNLRGFDVTACDKHEQSIDSLNNIIQSEALENIRAGVYNINLAEIKEQYDFILSTVVLMFLERDRIPHIISNMQGSTVDGGYNLIIAAMSTEDCPCPMPFSFTFKEDELKNYYADWEILKYNEDMGELHKTDAQGNRIKLRFATLLARKPLEHHHHHH” was “soluble”; that for “SAARRALKAVLVDLNGTLHIEDAAVPGAQEALKRLRATSVMVRFVTNTTKETKKDLLERLKKLEFEISEDEIFTSLTAARNLIEQKQVRPMLLLDDRALPEFTGVQTQDPNAVVIGLAPEHFHYQLLNQAFRLLLDGAPLIAIHKARYYKRKDGLALGPGPFVTALEYATDTKAMVVGKPEKTFFLEALRDADCAPEEAVMIGDDCRDDVDGAQNIGMLGILVKTGKYKAADEEKINPPPYLTCESFPHAVDHILQHLL” was “soluble”.
Take “MSSIGTGYDLAASTFSPDGRIFQVEYAQKAVDNAGTMIAIRGKNGVVVVADKLISSKLYTDNANPRMFNVNDNVGVAVAGNYPDGFALKNYAYGEAMKWLKDYREPMPIQNIANSVAEYIHIHTLGISRPFGAGAFFMSWNKQTGGRLFLVEPSGLNYEYKAWAVGKHRQAAKAEIEKLKIEELDVNQLVKEAARIIMVVRDENKDKNVQIEMGWVGEQTNGKYEEVPSEVVTAAEEWAIAKLDEDDMDD”: the “soluble on expression in E. coli” value was “not soluble”.
The value for “DKSNKLQNLVAEQLVGCGFNEILNNSLTRAAYYDGLESYPSKNLVMLLNPLSADLNCMRQTLLFGGLESIAHNANRKNADLKFFEFGNCYHFDAEKKNPEKVLAPYSEDYHLGLWVTGKMVSNSWAHADENTSVYELKAYVENIFKRLGLDLHSLVVGNLSDDIYSTALTVNTKGGKRLATFGVVTKKMLKAFDVDNEVYYADLNWKELM” was “soluble”; that for “ASTRNLMIEGENLEVLKLLQKSYAGRAKLVYIDPPYNTGKDFVYSDNFTDSLRHYLELTGQTTDGKRISSHTDASGRFHTDWLNMIYPRLKLARDLLADDGVIAVHIDEHEQHALVLVMREIFGEDNELGVAVWDKRNPKGDARGIAYQHESIVLFARDAQLLFERAPLKRPKRNAQRMLDAARGAIAGAATIADANAAYRAWVKSQTTLSGGEAMYDRISADGRVYRLVSMAWPNKKKAPDDYFVPLVHPVTGKPCPVPERGWRNPPATMQALIDKGLVEFGADETTQPQRIYFLDENMYENVPSVLPFGGSDDALMKSLGIPFDQPKPVEFAASIIGWCTDGDDLIVDFFGGSGTTGHAVMALNAADGGNRRYVLVQLPEPLDAGSKDQKAAADFCAAQRVPLNLAELTKERLRRAAARVAAEHPGTR” was “soluble”; that for “MGEIADSLAGLTISVVSPDNQLAATVRRRREVTVHFRPGSYERYDARTLETQLSQLFTLVMSGYRQGYMSVMEAHDMTVMADASDVDTEAGRIVRRRRDETVALGESAQGMVRAKTRGLSEWRFKIADGALSRLSEEQFTAEIHGAFMNVMADWSRRVRRIHWEVFSPDRVPAAGR” was “not soluble”.
For the sequence “MIFEVPIDHFPASSQQVSKTREHKPLRLSTVSLHSKEVNAAVAPLSPSVRRSQFNFSSEVTKSALPKVRASIPPLKRALTSPALPVQHLNLNLVRKGSNPSSQTSRNNSVTDLLKSELFKMPSRLLSTAVSLHQLA”, the “soluble on expression in E. coli” value was “not soluble”.
“AGTKLSLMPWFHGKITREQAERLLYPPETGLFLVRESTNYPGDYTLCVSSDGKVEHYRIMYHASKLSIDEEVYFENLMQLVEHYTSDADGLCTRLIKPKVMEGTVA”: the “soluble on expression in E. coli” value was “soluble”.
